Test results reported in publication PMC8064030.

Biological target: HIV-1 CA carrying the A92E substitution (HIV-1)
Assay: cryo-EM structure

Substance: HIV-1 CA carrying the A92E substitution (natural protein)
- stoichiometry N: 6
